Data on one substance can be found in paper doi:10.1101/2024.05.08.592654.

In this assay the target is GFP-PNUTS^W726A-HA (non-PP1 binding mutant) (Drosophila). As to the kind of experiment: affinity purification with mass spectrometry.

Take “PP1-87B (from UniProt P12982 1-302) (enzyme)”: the fold more abundant with PNUTS^WT than with PNUTS^W726A is 12 fold.
